# Data reported in US20250034271A1 (EUCURE BEIJING BIOPHARMA, published 2025).
# Substitutions are numbered along the chain they refer to. In names and notes the source's numbering stands.
# B1: 4H6-H2K2-IgG4 (antibody, V domains shown)
# VH: EVQLQESGPGLVKPSQTLSLTCTVSGDSVSSGYWNWIRKHPGKKLEWIGFISYSGSTYYTPSLKSRVTISRDTSKNQFSLKLSSVTAADTAVYYCARFRRYDDGVDYWGQGTLVTVSS
# VL: DIQMTQSPSAMSASVGDRVTITCRASHEISGYLSWIQQKPGGTIKRLINAASTLASGVPSRFSGSRSGTEFTLTISSLQPEDFADYYCLQYSSYPWTFGGGTKLEIK
# notes: Humanized
# B2: 4H6-H1K1-IgG4 (antibody, V domains shown)
# VH: B1 VH with E1Q
# VL: B1 VL with I36F, T43V, D85T
# notes: Humanized
# B3: 4H6-H1K2-IgG4 (antibody, V domains shown)
# VH: B1 VH with E1Q
# VL: B1 VL
# notes: Humanized
# B4: 4H6-H1K3-IgG4 (antibody, V domains shown)
# VH: B1 VH with E1Q
# VL: B1 VL with F71Y
# notes: Humanized
# B5: 4H6-H1K4-IgG4 (antibody, V domains shown)
# VH: B1 VH with E1Q
# VL: B1 VL with I21L, F71Y
# notes: Humanized
# B6: 4H6-H2K1-IgG4 (antibody, V domains shown)
# VH: B1 VH
# VL: B1 VL with I36F, T43V, D85T
# notes: Humanized
# B7: 4H6-H2K3-IgG4 (antibody, V domains shown)
# VH: B1 VH
# VL: B1 VL with F71Y
# notes: Humanized
# B8: 4H6-H2K4-IgG4 (antibody, V domains shown)
# VH: B1 VH
# VL: B1 VL with I21L, F71Y
# notes: Humanized
# B9: 4H6-H3K1-IgG4 (antibody, V domains shown)
# VH: B1 VH with W47Y, I48M, V67I, Y94F
# VL: B1 VL with I36F, T43V, D85T
# notes: Humanized
# B10: 4H6-H3K3-IgG4 (antibody, V domains shown)
# VH: B1 VH with W47Y, I48M, V67I, Y94F
# VL: B1 VL with F71Y
# notes: Humanized
# B11: 4H6-H3K4-IgG4 (antibody, V domains shown)
# VH: B1 VH with W47Y, I48M, V67I, Y94F
# VL: B1 VL with I21L, F71Y
# notes: Humanized
# B12: 4H6-H4K1-IgG4 (antibody, V domains shown)
# VH: B1 VH with H40F, W47Y, I48M, V67I, Y94F
# VL: B1 VL with I36F, T43V, D85T
# notes: Humanized
# B13: 4H6-H4K3-IgG4 (antibody, V domains shown)
# VH: B1 VH with H40F, W47Y, I48M, V67I, Y94F
# VL: B1 VL with F71Y
# notes: Humanized
# B14: 4H6-H4K4-IgG4 (antibody, V domains shown)
# VH: B1 VH with H40F, W47Y, I48M, V67I, Y94F
# VL: B1 VL with I21L, F71Y
# notes: Humanized
# B15: 7F10-mHvKv-IgG1-N297A (antibody, V domains shown)
# VH: EVKLVESGGGLVQPGGSLKLSCATSGFTFSDYYMYWVRQTPEKRLEWVAYISYGGDSTFYPDTVRGRFTISRDNAKNALYLQMSRLKSEDTAVYYCARPAPSAHSYYLDYWGQGTTLTVSS
# VL: DIQMTQTTSSLSASLGDRVTISCRASQDISNYLNWYQQKPDGTVKLLIYYTSRLHSGLPSRFSGSGSGTDYSLTISNLEQEDIATYYCQQGKTLPFTFASGTKLEIK
# notes: Chimeric; human IgG1 constant regions with N297A mutation (EU numbering) in the Fc region
# B16: 7F10-H2K3-IgG4 (antibody, V domains shown)
# VH: B15 VH with K3Q, K19R, T40A, E42G, A78S, R85S, S88A, T116L
# VL: B15 VL with T7S, L15V, S22T, D41G, T43A, S72T, N77S, E79Q
# notes: Humanized
# B17: 7F10-H1K1-IgG4 (antibody, V domains shown)
# VH: B15 VH with K3Q, K19R, T40A, E42G, A78S, S84N, R85S, K87R, S88A, T116L
# VL: DIQMTQSPSSLSASVGDRVTITCRASQDISNYLNWYQQKPGGAVKLLIYYTSRLHSGLPSRFSGSGSGTDFTFTISSLQPEDIATYYCQQGKTLPFTFASGTKLEIK
# notes: Humanized
# B18: 7F10-H1K2-IgG4 (antibody, V domains shown)
# VH: B15 VH with K3Q, K19R, T40A, E42G, A78S, S84N, R85S, K87R, S88A, T116L
# VL: B17 VL with F71Y
# notes: Humanized
# B19: 7F10-H1K3-IgG4 (antibody, V domains shown)
# VH: B15 VH with K3Q, K19R, T40A, E42G, A78S, S84N, R85S, K87R, S88A, T116L
# VL: B17 VL with P8T, F71Y, F73L, P80Q
# notes: Humanized
# B20: 7F10-H1K4-IgG4 (antibody, V domains shown)
# VH: B15 VH with K3Q, K19R, T40A, E42G, A78S, S84N, R85S, K87R, S88A, T116L
# VL: B17 VL with P8T, G41D, A43T, F71Y, F73L, P80Q
# notes: Humanized
# B21: 7F10-H2K1-IgG4 (antibody, V domains shown)
# VH: B15 VH with K3Q, K19R, T40A, E42G, A78S, R85S, S88A, T116L
# VL: B17 VL
# notes: Humanized
# B22: 7F10-H2K2-IgG4 (antibody, V domains shown)
# VH: B15 VH with K3Q, K19R, T40A, E42G, A78S, R85S, S88A, T116L
# VL: B17 VL with F71Y
# notes: Humanized
# B23: 7F10-H2K4-IgG4 (antibody, V domains shown)
# VH: B15 VH with K3Q, K19R, T40A, E42G, A78S, R85S, S88A, T116L
# VL: B17 VL with P8T, G41D, A43T, F71Y, F73L, P80Q
# notes: Humanized
# B24: 7F10-H3K1-IgG4 (antibody, V domains shown)
# VH: B15 VH with K19R, T40A, S88A
# VL: B17 VL
# notes: Humanized
# B25: 7F10-H3K2-IgG4 (antibody, V domains shown)
# VH: B15 VH with K19R, T40A, S88A
# VL: B17 VL with F71Y
# notes: Humanized
# B26: 7F10-H3K3-IgG4 (antibody, V domains shown)
# VH: B15 VH with K19R, T40A, S88A
# VL: B17 VL with P8T, F71Y, F73L, P80Q
# notes: Humanized
# B27: 7F10-H3K4-IgG4 (antibody, V domains shown)
# VH: B15 VH with K19R, T40A, S88A
# VL: B17 VL with P8T, G41D, A43T, F71Y, F73L, P80Q
# notes: Humanized
# B28: 6A7-mHvKv-IgG4 (antibody, V domains shown)
# VH: QVQLQQPGAELVKPGASVKLSCKASGYTFISYYIYWVKQRPGQGLEWIGGINPRNGGTNFNEKFKSKATLTVDKSSSTAYMQLSSLTSEDSAVYYCTRHGNGVYWGQGTTLTVSS
# VL: DVVMTQTPLSLPVSLGDQASISCRSSQSLLHSNGNTYLHWYLQKPGQSPNHLIYQVSNRFSGVPDRFSGSGSGTDFTLKISRVEAEDLGVYFCSQTTHVPWTFGGGTKLEIK
# notes: Chimeric; also called chimeric anti-hCD40 antibody 6A7-mHvKv-IgG4
# B29: 6A7-H2K2-IgG4 (antibody, V domains shown)
# VH: QVQLVQSGAEVKKPGASVKVSCKASGYTFISYYIYWVRQAPGQGLEWIGGINPRNGGTNFNEKFKSRATLTVDTSISTAYMELSRLRSEDTAVYYCARHGNGVYWGQGTTVTVSS
# VL: B28 VL with T7S, S14T, D17Q, Q18P, L42Q, K44R, L88V, L109V
# notes: Humanized
# B30: 6A7-H1K1-IgG4 (antibody, V domains shown)
# VH: B29 VH with I48M, A68V
# VL: DVVMTQSPLSLPVTLGQPASISCRSSQSLLHSNGNTYLHWFQQRPGQSPRHLIYQVSNRFSGVPDRFSGSGSGTDFTLKISRVEAEDVGVYYCSQTTHVPWTFGGGTKVEIK
# notes: Humanized
# B31: 6A7-H1K2-IgG4 (antibody, V domains shown)
# VH: B29 VH with I48M, A68V
# VL: B30 VL with F41Y, R50N, Y92F
# notes: Humanized
# B32: 6A7-H1K3-IgG4 (antibody, V domains shown)
# VH: B29 VH with I48M, A68V
# VL: B30 VL with Q17D, F41Y, R50N, Y92F, V109L
# notes: Humanized
# B33: 6A7-H2K1-IgG4 (antibody, V domains shown)
# VH: B29 VH
# VL: B30 VL
# notes: Humanized
# B34: 6A7-H2K3-IgG4 (antibody, V domains shown)
# VH: B29 VH
# VL: B30 VL with Q17D, F41Y, R50N, Y92F, V109L
# notes: Humanized
# B35: 6A7-H3K1-IgG4 (antibody, V domains shown)
# VH: B29 VH with A97T
# VL: B30 VL
# notes: Humanized
# Target: T1, Histidine-tagged human CD40 protein (hCD40-His) (human, UniProt P25942 21-193)
# T1 construct: not shown: histidine tag
# T1 sequence (P25942 21-193 limits assumed): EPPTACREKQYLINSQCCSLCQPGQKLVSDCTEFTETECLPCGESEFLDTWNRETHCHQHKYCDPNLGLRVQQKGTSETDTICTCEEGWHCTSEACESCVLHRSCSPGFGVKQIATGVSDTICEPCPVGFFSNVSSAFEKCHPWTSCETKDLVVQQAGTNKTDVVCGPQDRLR
# Assay: SPR, Biacore T200; antibody on Protein A chip, hCD40-His injected; 1:1 fit
# Procedure: The binding affinity of the anti-hCD40 antibodies were measured using surface plasmon resonance (SPR) using Biacore (Biacore, INC, Piscataway N.J.) T200 biosensor equipped with pre-immobilized Protein A sensor chips.
# Anti-hCD40 antibodies were collected by transfecting CHO-S cells and then purified. The antibodies (1 μg/mL) were injected into Biacore T200 biosensor at 10 μL/min for about 24-33 seconds to achieve to a desired protein density (about 44-57 response units (RU)). […] Dissociation was monitored for 300 seconds. The chip was regenerated after the last injection of each titration with Glycine (pH 2.0, 30 μL/min for 12 seconds).
Binder,Kd [nM],koff [s⁻¹],kon [M⁻¹ s⁻¹]
B1,138,0.057,414000
B2,7720,0.167,21700
B3,164,0.0632,386000
B4,229,0.0554,242000
B5,465,0.0695,149000
B6,447,0.227,507000
B7,253,0.0659,260000
B8,378,0.0742,196000
B9,413,0.0342,82700
B10,91.6,0.0286,312000
B11,94.8,0.0282,298000
B12,145,0.0269,185000
B13,78.8,0.0257,327000
B14,88.9,0.0278,312000
B15,194,0.0292,150000
B16,182,0.0313,172000
B17,291,0.0514,177000
B18,594,0.0491,82800

Binder,Kd [nM],koff [s⁻¹],kon [M⁻¹ s⁻¹]
B19,535,0.0391,73100
B20,278,0.0321,115000
B21,540,0.065,120000
B22,505,0.0534,106000
B23,202,0.038,188000
B24,430,0.0568,132000
B25,380,0.0482,127000
B26,238,0.0314,132000
B27,184,0.0274,149000
B28,2.6,0.000259,99400
B29,189,0.00496,26300
B30,280,0.00571,20400
B31,187,0.00386,20600
B32,136,0.0039,28700
B33,298,0.00708,23700
B34,111,0.00505,45300
B35,20.8,0.000574,27600
